Source: patent US10662413B2, “Recombinant DNA polymerase for improved incorporation of nucleotide analogues” (PERSONAL GENOMICS, INC., priority 2016, dated 2020)

B1: D480R: 9° N-III mutant D480R, nucleotide binding pocket (protein)
chain: MILDTDYITENGKPVIRVFKKENGEFKIEYDRTFEPYFYALLKDDSAIEDVKKVTAKRHGTVVKVKRAEKVQKKFLGRPIEVWKLYFNHPQDVPAIRDRIRAHPAVVDIYEYDIPFAKRYLIDKGLIPMEGDEELTMLAFAIATLYHEGEEFGTGPILMISYADGSEARVITWKKIDLPYVDVVSTEKEMIKRFLRVVREKDPDVLITYNGDNFDFAYLKKRCEELGIKFTLGRDGSEPKIQRMGDRFAVEVKGRIHFDLYPVIRRTINLPTYTLEAVYEAVFGKPKEKVYAEEIAQAWESGEGLERVARYSMEDAKVTYELGREFFPMEAQLSRLIGQSLWDVSRSSTGNLVEWFLLRKAYKRNELAPNKPDERELARRRGGYAGGYVKEPERGLWDNIVYLDFRSSAVSIIITHNVSPDTLNREGCKEYDVAPEVGHKFCKDFPGFIPSLLGDLLEERQKIKRKMKATVDPLEKKLLRYRQRLIKILANSFYGYYGYAKARWYCKECAESVTAWGREYIEMVIRELEEKFGFKVLYADTDGLHATIPGADAETVKKKAKEFLKYINPKLPGLLELEYEGFYVRGFFVTKKKYAVIDEEGKITTRGLEIVRRDWSEIAKETQARVLEAILKHGDVEEAVRIVKEVTEKLSKYEVPPEKLVIHEQITRDLRDYKATGPHVAVAKRLAARGVKIRPGTVISYIVLKGSGRIGDRAIPADEFDPTKHRYDAEYYIENQVLPAVERILKAFGYRKEDLRYQKTKQVGLGAWLKVKGKK
B2: I486A: 9° N-III mutant I486A, nucleotide binding pocket (protein)
chain: MILDTDYITENGKPVIRVFKKENGEFKIEYDRTFEPYFYALLKDDSAIEDVKKVTAKRHGTVVKVKRAEKVQKKFLGRPIEVWKLYFNHPQDVPAIRDRIRAHPAVVDIYEYDIPFAKRYLIDKGLIPMEGDEELTMLAFAIATLYHEGEEFGTGPILMISYADGSEARVITWKKIDLPYVDVVSTEKEMIKRFLRVVREKDPDVLITYNGDNFDFAYLKKRCEELGIKFTLGRDGSEPKIQRMGDRFAVEVKGRIHFDLYPVIRRTINLPTYTLEAVYEAVFGKPKEKVYAEEIAQAWESGEGLERVARYSMEDAKVTYELGREFFPMEAQLSRLIGQSLWDVSRSSTGNLVEWFLLRKAYKRNELAPNKPDERELARRRGGYAGGYVKEPERGLWDNIVYLDFRSSAVSIIITHNVSPDTLNREGCKEYDVAPEVGHKFCKDFPGFIPSLLGDLLEERQKIKRKMKATVDPLEKKLLDYRQRLAKILANSFYGYYGYAKARWYCKECAESVTAWGREYIEMVIRELEEKFGFKVLYADTDGLHATIPGADAETVKKKAKEFLKYINPKLPGLLELEYEGFYVRGFFVTKKKYAVIDEEGKITTRGLEIVRRDWSEIAKETQARVLEAILKHGDVEEAVRIVKEVTEKLSKYEVPPEKLVIHEQITRDLRDYKATGPHVAVAKRLAARGVKIRPGTVISYIVLKGSGRIGDRAIPADEFDPTKHRYDAEYYIENQVLPAVERILKAFGYRKEDLRYQKTKQVGLGAWLKVKGKK
B3: L485F: 9° N-III mutant L485F, nucleotide binding pocket (protein)
chain: MILDTDYITENGKPVIRVFKKENGEFKIEYDRTFEPYFYALLKDDSAIEDVKKVTAKRHGTVVKVKRAEKVQKKFLGRPIEVWKLYFNHPQDVPAIRDRIRAHPAVVDIYEYDIPFAKRYLIDKGLIPMEGDEELTMLAFAIATLYHEGEEFGTGPILMISYADGSEARVITWKKIDLPYVDVVSTEKEMIKRFLRVVREKDPDVLITYNGDNFDFAYLKKRCEELGIKFTLGRDGSEPKIQRMGDRFAVEVKGRIHFDLYPVIRRTINLPTYTLEAVYEAVFGKPKEKVYAEEIAQAWESGEGLERVARYSMEDAKVTYELGREFFPMEAQLSRLIGQSLWDVSRSSTGNLVEWFLLRKAYKRNELAPNKPDERELARRRGGYAGGYVKEPERGLWDNIVYLDFRSSAVSIIITHNVSPDTLNREGCKEYDVAPEVGHKFCKDFPGFIPSLLGDLLEERQKIKRKMKATVDPLEKKLLDYRQRFIKILANSFYGYYGYAKARWYCKECAESVTAWGREYIEMVIRELEEKFGFKVLYADTDGLHATIPGADAETVKKKAKEFLKYINPKLPGLLELEYEGFYVRGFFVTKKKYAVIDEEGKITTRGLEIVRRDWSEIAKETQARVLEAILKHGDVEEAVRIVKEVTEKLSKYEVPPEKLVIHEQITRDLRDYKATGPHVAVAKRLAARGVKIRPGTVISYIVLKGSGRIGDRAIPADEFDPTKHRYDAEYYIENQVLPAVERILKAFGYRKEDLRYQKTKQVGLGAWLKVKGKK
B4: I486R: 9° N-III mutant I486R, nucleotide binding pocket (protein)
chain: MILDTDYITENGKPVIRVFKKENGEFKIEYDRTFEPYFYALLKDDSAIEDVKKVTAKRHGTVVKVKRAEKVQKKFLGRPIEVWKLYFNHPQDVPAIRDRIRAHPAVVDIYEYDIPFAKRYLIDKGLIPMEGDEELTMLAFAIATLYHEGEEFGTGPILMISYADGSEARVITWKKIDLPYVDVVSTEKEMIKRFLRVVREKDPDVLITYNGDNFDFAYLKKRCEELGIKFTLGRDGSEPKIQRMGDRFAVEVKGRIHFDLYPVIRRTINLPTYTLEAVYEAVFGKPKEKVYAEEIAQAWESGEGLERVARYSMEDAKVTYELGREFFPMEAQLSRLIGQSLWDVSRSSTGNLVEWFLLRKAYKRNELAPNKPDERELARRRGGYAGGYVKEPERGLWDNIVYLDFRSSAVSIIITHNVSPDTLNREGCKEYDVAPEVGHKFCKDFPGFIPSLLGDLLEERQKIKRKMKATVDPLEKKLLDYRQRLRKILANSFYGYYGYAKARWYCKECAESVTAWGREYIEMVIRELEEKFGFKVLYADTDGLHATIPGADAETVKKKAKEFLKYINPKLPGLLELEYEGFYVRGFFVTKKKYAVIDEEGKITTRGLEIVRRDWSEIAKETQARVLEAILKHGDVEEAVRIVKEVTEKLSKYEVPPEKLVIHEQITRDLRDYKATGPHVAVAKRLAARGVKIRPGTVISYIVLKGSGRIGDRAIPADEFDPTKHRYDAEYYIENQVLPAVERILKAFGYRKEDLRYQKTKQVGLGAWLKVKGKK
B5: I486F: 9° N-III mutant I486F, nucleotide binding pocket (protein)
chain: MILDTDYITENGKPVIRVFKKENGEFKIEYDRTFEPYFYALLKDDSAIEDVKKVTAKRHGTVVKVKRAEKVQKKFLGRPIEVWKLYFNHPQDVPAIRDRIRAHPAVVDIYEYDIPFAKRYLIDKGLIPMEGDEELTMLAFAIATLYHEGEEFGTGPILMISYADGSEARVITWKKIDLPYVDVVSTEKEMIKRFLRVVREKDPDVLITYNGDNFDFAYLKKRCEELGIKFTLGRDGSEPKIQRMGDRFAVEVKGRIHFDLYPVIRRTINLPTYTLEAVYEAVFGKPKEKVYAEEIAQAWESGEGLERVARYSMEDAKVTYELGREFFPMEAQLSRLIGQSLWDVSRSSTGNLVEWFLLRKAYKRNELAPNKPDERELARRRGGYAGGYVKEPERGLWDNIVYLDFRSSAVSIIITHNVSPDTLNREGCKEYDVAPEVGHKFCKDFPGFIPSLLGDLLEERQKIKRKMKATVDPLEKKLLDYRQRLFKILANSFYGYYGYAKARWYCKECAESVTAWGREYIEMVIRELEEKFGFKVLYADTDGLHATIPGADAETVKKKAKEFLKYINPKLPGLLELEYEGFYVRGFFVTKKKYAVIDEEGKITTRGLEIVRRDWSEIAKETQARVLEAILKHGDVEEAVRIVKEVTEKLSKYEVPPEKLVIHEQITRDLRDYKATGPHVAVAKRLAARGVKIRPGTVISYIVLKGSGRIGDRAIPADEFDPTKHRYDAEYYIENQVLPAVERILKAFGYRKEDLRYQKTKQVGLGAWLKVKGKK
B6: V282F: 9° N-III mutant V282F, nucleotide binding pocket (protein)
chain: MILDTDYITENGKPVIRVFKKENGEFKIEYDRTFEPYFYALLKDDSAIEDVKKVTAKRHGTVVKVKRAEKVQKKFLGRPIEVWKLYFNHPQDVPAIRDRIRAHPAVVDIYEYDIPFAKRYLIDKGLIPMEGDEELTMLAFAIATLYHEGEEFGTGPILMISYADGSEARVITWKKIDLPYVDVVSTEKEMIKRFLRVVREKDPDVLITYNGDNFDFAYLKKRCEELGIKFTLGRDGSEPKIQRMGDRFAVEVKGRIHFDLYPVIRRTINLPTYTLEAVYEAFFGKPKEKVYAEEIAQAWESGEGLERVARYSMEDAKVTYELGREFFPMEAQLSRLIGQSLWDVSRSSTGNLVEWFLLRKAYKRNELAPNKPDERELARRRGGYAGGYVKEPERGLWDNIVYLDFRSSAVSIIITHNVSPDTLNREGCKEYDVAPEVGHKFCKDFPGFIPSLLGDLLEERQKIKRKMKATVDPLEKKLLDYRQRLIKILANSFYGYYGYAKARWYCKECAESVTAWGREYIEMVIRELEEKFGFKVLYADTDGLHATIPGADAETVKKKAKEFLKYINPKLPGLLELEYEGFYVRGFFVTKKKYAVIDEEGKITTRGLEIVRRDWSEIAKETQARVLEAILKHGDVEEAVRIVKEVTEKLSKYEVPPEKLVIHEQITRDLRDYKATGPHVAVAKRLAARGVKIRPGTVISYIVLKGSGRIGDRAIPADEFDPTKHRYDAEYYIENQVLPAVERILKAFGYRKEDLRYQKTKQVGLGAWLKVKGKK
B7: I486P: 9° N-III mutant I486P, nucleotide binding pocket (protein)
chain: MILDTDYITENGKPVIRVFKKENGEFKIEYDRTFEPYFYALLKDDSAIEDVKKVTAKRHGTVVKVKRAEKVQKKFLGRPIEVWKLYFNHPQDVPAIRDRIRAHPAVVDIYEYDIPFAKRYLIDKGLIPMEGDEELTMLAFAIATLYHEGEEFGTGPILMISYADGSEARVITWKKIDLPYVDVVSTEKEMIKRFLRVVREKDPDVLITYNGDNFDFAYLKKRCEELGIKFTLGRDGSEPKIQRMGDRFAVEVKGRIHFDLYPVIRRTINLPTYTLEAVYEAVFGKPKEKVYAEEIAQAWESGEGLERVARYSMEDAKVTYELGREFFPMEAQLSRLIGQSLWDVSRSSTGNLVEWFLLRKAYKRNELAPNKPDERELARRRGGYAGGYVKEPERGLWDNIVYLDFRSSAVSIIITHNVSPDTLNREGCKEYDVAPEVGHKFCKDFPGFIPSLLGDLLEERQKIKRKMKATVDPLEKKLLDYRQRLPKILANSFYGYYGYAKARWYCKECAESVTAWGREYIEMVIRELEEKFGFKVLYADTDGLHATIPGADAETVKKKAKEFLKYINPKLPGLLELEYEGFYVRGFFVTKKKYAVIDEEGKITTRGLEIVRRDWSEIAKETQARVLEAILKHGDVEEAVRIVKEVTEKLSKYEVPPEKLVIHEQITRDLRDYKATGPHVAVAKRLAARGVKIRPGTVISYIVLKGSGRIGDRAIPADEFDPTKHRYDAEYYIENQVLPAVERILKAFGYRKEDLRYQKTKQVGLGAWLKVKGKK

tested on: 5′Q-3′-Ga

Point of comparison: B5, “conversion rate (C.R.) of extension product” value 81%. Against it:
- B1 — higher, 83%
- B2 — higher, 82%
- B3 — lower, 74%
- B4 — higher, 87%
- B6 — lower, 66%
- B7 — higher, 100%
